Earlier results, collected in article PMC3417102.

What was measured:
[1] = biological target: tissue-type plasminogen activator (Homo sapiens) (UniProt P00750)
[2] = biological target: plasminogen (Homo sapiens) (UniProt P00747)
[3] = biological target: Glu-plasminogen (Homo sapiens) (UniProt P00747)

UniProt P00750, sequence (P00750 311-562): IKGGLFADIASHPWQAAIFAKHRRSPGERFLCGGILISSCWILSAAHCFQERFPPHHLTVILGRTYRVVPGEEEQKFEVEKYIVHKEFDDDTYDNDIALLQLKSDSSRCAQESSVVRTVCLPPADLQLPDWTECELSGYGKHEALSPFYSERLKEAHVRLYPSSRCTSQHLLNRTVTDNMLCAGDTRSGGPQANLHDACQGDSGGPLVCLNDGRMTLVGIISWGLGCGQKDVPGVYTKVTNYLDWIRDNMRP

For Annexin A2 (from UniProt P07355), the Kd [1] is given as 0.03 µM and the Kd [2] is given as 0.114 µM.
In the case of “beta2-glycoprotein I (nicked) (from UniProt P02749)”, the Kd [3] is listed as 0.37 µM.
